Measurements reported in patent US20230136228A1 (LAMKAP BIO ALPHA, published 2023).
Numbering of substitutions follows the chain as printed. Names may count otherwise.

T1: shed soluble CEACAM5 (sCEA) (human, UniProt P06731 35-685, limits assumed)
T1 sequence (looked up): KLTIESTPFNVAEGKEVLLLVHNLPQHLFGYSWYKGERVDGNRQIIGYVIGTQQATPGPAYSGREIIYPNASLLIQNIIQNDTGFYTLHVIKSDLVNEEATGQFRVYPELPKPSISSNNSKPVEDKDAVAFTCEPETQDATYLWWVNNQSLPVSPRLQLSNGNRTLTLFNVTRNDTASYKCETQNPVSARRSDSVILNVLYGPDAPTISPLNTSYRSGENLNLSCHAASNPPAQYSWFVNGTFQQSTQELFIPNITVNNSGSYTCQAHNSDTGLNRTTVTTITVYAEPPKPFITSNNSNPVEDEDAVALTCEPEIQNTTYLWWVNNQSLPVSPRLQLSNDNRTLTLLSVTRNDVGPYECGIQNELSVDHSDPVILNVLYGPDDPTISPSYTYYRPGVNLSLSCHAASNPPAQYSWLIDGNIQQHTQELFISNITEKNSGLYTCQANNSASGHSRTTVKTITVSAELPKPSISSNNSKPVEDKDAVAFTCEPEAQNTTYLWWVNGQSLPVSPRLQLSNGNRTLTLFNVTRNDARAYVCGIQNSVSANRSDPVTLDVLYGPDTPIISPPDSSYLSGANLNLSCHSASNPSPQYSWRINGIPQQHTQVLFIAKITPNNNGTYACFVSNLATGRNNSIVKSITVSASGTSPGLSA

T2: human CEACAM6 (human, UniProt P40199 35-320)
T2 construct: whole, on cells; also called CD66c
T2 sequence (looked up): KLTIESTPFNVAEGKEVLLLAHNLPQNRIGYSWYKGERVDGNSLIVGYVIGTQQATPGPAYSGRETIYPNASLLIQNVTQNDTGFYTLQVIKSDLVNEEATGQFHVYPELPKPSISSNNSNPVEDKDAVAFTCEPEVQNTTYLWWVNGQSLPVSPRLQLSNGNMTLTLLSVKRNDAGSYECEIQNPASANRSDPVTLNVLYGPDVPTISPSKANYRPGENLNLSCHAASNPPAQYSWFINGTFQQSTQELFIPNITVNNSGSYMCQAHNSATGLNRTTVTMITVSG

T3: human CEACAM1 (human, UniProt P13688 35-526)
T3 construct: whole, on cells
T3 sequence (looked up): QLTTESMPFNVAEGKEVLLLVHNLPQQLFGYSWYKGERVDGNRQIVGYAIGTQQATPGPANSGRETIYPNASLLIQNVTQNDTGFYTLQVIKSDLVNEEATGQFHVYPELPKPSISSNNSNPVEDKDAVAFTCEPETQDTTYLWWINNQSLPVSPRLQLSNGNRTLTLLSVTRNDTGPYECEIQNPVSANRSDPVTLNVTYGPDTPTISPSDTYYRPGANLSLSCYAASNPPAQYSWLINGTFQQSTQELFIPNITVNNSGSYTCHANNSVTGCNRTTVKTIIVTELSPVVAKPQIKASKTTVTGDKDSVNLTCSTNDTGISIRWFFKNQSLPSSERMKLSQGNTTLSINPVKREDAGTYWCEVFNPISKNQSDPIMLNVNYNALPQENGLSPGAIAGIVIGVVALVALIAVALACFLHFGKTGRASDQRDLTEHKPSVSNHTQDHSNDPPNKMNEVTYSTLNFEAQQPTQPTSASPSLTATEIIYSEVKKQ

T4: human CEACAM5 (carcinoembryonic antigen, CEA), cell surface (human, UniProt P06731 35-685)
T4 construct: whole, on cells; also called CD66e
T4 sequence (looked up): T1 sequence (looked up)

T5: human CEACAM4 (human, UniProt O75871 36-244)
T5 construct: whole, on cells
T5 sequence (looked up): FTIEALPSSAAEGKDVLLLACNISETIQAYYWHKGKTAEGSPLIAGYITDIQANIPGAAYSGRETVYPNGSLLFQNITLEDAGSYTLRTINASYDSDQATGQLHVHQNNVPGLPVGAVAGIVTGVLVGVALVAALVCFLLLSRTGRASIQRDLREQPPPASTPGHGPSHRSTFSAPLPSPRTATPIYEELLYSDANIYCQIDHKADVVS

B1: AB17L3-1/N (bispecific antibody, human IgG1, kappa, lambda, L234A L235A)
heavy: EVQLVESGGGLVQPGGSLKLSCAASGFTFNTYAMNWVRQAPGKGLEWVGRIRSKYNNYATYYADSVKDRFTISRDDSKNTAYLQMNSLKTEDTAVYYCVRHGNFGNSYVSWFAYWGQGTLVTVSSASTKGPSVFPLAPSSKSTSGGTAALGCLVKDYFPEPVTVSWNSGALTSGVHTFPAVLQSSGLYSLSSVVTVPSSSLGTQTYICNVNHKPSNTKVDKRVEPKSCDKTHTCPPCPAPEAAGGPSVFLFPPKPKDTLMISRTPEVTCVVVDVSHEDPEVKFNWYVDGVEVHNAKTKPREEQYNSTYRVVSVLTVLHQDWLNGKEYKCKVSNKALAAPIEKTISKAKGQPREPQVYTLPPSREEMTKNQVSLTCLVKGFYPSDIAVEWESNGQPENNYKTTPPVLDSDGSFFLYSKLTVDKSRWQQGNVFSCSVMHEALHNHYTQKSLSLSPG
light 1: EIVLTQSPATLSLSPGERATLSCRASQSVNSNLNWYQQKPGQAPRLLIYHGSNRATGIPARFSGSGSGTDFTLTISSLEPEDFAVYYCQQFDYFKEHNTFGQGTKVEIKRTVAAPSVFIFPPSDEQLKSGTASVVCLLNNFYPREAKVQWKVDNALQSGNSQESVTEQDSKDSTYSLSSTLTLSKADYEKHKVYACEVTHQGLSSPVTKSFNRGEC
light 2: QTVVTQEPSLTVSPGGTVTLTCRSSTGAVTTSNYANWFQQKPGQAPRGLIGGTNKRAPGTPARFSGSLLGGKAALTLSGAQPEDEAEYYCALWYKQRWVFGGGTKLTVLGQPKAAPSVTLFPPSSEELQANKATLVCLISDFYPGAVTVAWKADSSPVKAGVETTTPSKQSNNKYAASSYLSLTPEQWKSHRSYSCQVTHEGSTVEKTVAPTECS
notes: Kappa-lambda body, lead optimization wave 1
B2: AB1L3-1/N (bispecific antibody, human IgG1, kappa, lambda, L234A L235A)
heavy: B1 heavy
light 1: B1 light 1 with Y93L, F94R, K95H
light 2: B1 light 2
notes: Kappa-lambda body: common heavy chain (hIgG1 L234A+L235A+P329A), kappa CEA light chain AB1, lambda CD3 light chain L3-1 (1A4); also called parental KL bispecific antibody
B3: AB73L3-1/N (bispecific antibody, human IgG1, kappa, lambda, L234A L235A)
heavy: B1 heavy
light 1: B1 light 1 with G51S, S52N, A55P, T56H, K95R, H97Y
light 2: B1 light 2
notes: Kappa-lambda body, lead optimization wave 2
B4: AB72L3-1/N (bispecific antibody, human IgG1, kappa, lambda, L234A L235A)
heavy: B1 heavy
light 1: B1 light 1 with G51S, S52T, A55P, T56R, H97Y
light 2: B1 light 2
notes: as for B3
B5: AB71L3-1/N (bispecific antibody, human IgG1, kappa, lambda, L234A L235A)
heavy: B1 heavy
light 1: B1 light 1 with G51S, A55P, T56H
light 2: B1 light 2
notes: as for B3

Columns and labels:
[1] = biological target: T1, shed soluble CEACAM5 (sCEA); test: cell-based or functional assay
human CEACAM6 = biological target: T2, human CEACAM6; test: flow cytometry, transfected PEAK cells, 10 mcg/ml
Description: (§1) Vectors encoding the full-length version of human CEACAM 1, 3, 4, 5, 6, 7, 8, 18, 19, 20 and […] are used to express these proteins at the surface of PEAK and/or CHO cells as described in Example 1. Similarly, vectors encoding the full-length version of cyno CEACAM 5 and 6 are also used to express these proteins at the surface of PEAK and/or CHO cells. Non-transfected PEAK and/or CHO cells are used as negative control. Cells are harvested, counted, checked for viability and resuspended at 3×10⁶ cells/ml in FACS buffer (PBS 2% BSA, 0.1% NaN₃). 100 μl of the cell suspension are distributed in V-bottom 96-well plates (3×10⁵ cells/well). The supernatant is removed by centrifugation 3 minutes at 4° C., 1300 rpm and the cells incubated for 15 minutes at 4° C. with increasing concentrations of the antibody according to the invention. The antibodies carrying the anti-CEACAM5 arms to test are diluted in FACS buffer and the concentration range is 30 pM-500 nM. Cells are washed twice with cold FACS buffer and re-incubated for further 15 minutes at 4° C. with a compatible anti-human IgG secondary antibody. Cells are washed twice with cold FACS buffer and resuspended in 300 μl FACS buffer with 1:1500-diluted TOPRO-3 (Invitrogen). Fluorescence is measured using a FACSCalibur™ (BD Biosciences) or a Cytoflex Platform (Beckman Coulter). Dose-response binding curves are fitted using GraphPad Prism8 software. In the same manner, CEACAM1, CEACAM6 and other CEACAMs can be characterized.
(§2) For the bispecific antibodies AB17L3-1/N, AB71L3-1/N, AB72L3-1/N, AB73L3-1/N the MFI measured for binding to CEACAM5 transfected cells was found between 29000 and 41000 (Table 2). In contrast MFI found by using PEAK cells transfected with CEACAM 1,3,4,6,8 were found below 1000 with the only exception of a strong signal for AB72L3-1/N on CEACAM8 transfected cells. When MFI values obtained on transfected cells expressing any given CEACAM are divided by the values obtained on WT PEAK cells, “factors to PEAK WT” can be calculated (Table 3).

human CEACAM1 = biological target: T3, human CEACAM1; test: flow cytometry, transfected PEAK cells, 10 mcg/ml
Description: as §1, §2

[2] = biological target: T4, human CEACAM5 (carcinoembryonic …); test: flow cytometry, transfected PEAK cells, 10 mcg/ml
Description: as §1, §2

human CEACAM4 = biological target: T5, human CEACAM4; test: flow cytometry, transfected PEAK cells, 10 mcg/ml
Description: as §1, §2

Row | Binder | EC50 fold change compared to no shed CEA condition, sCEA 0 µg/mL (reference) [1] [fold] | EC50 fold change compared to no shed CEA condition, sCEA 0.2 µg/mL [1] [fold] | EC50 fold change compared to no shed CEA condition, sCEA 1 µg/mL [1] [fold] | EC50 fold change compared to no shed CEA condition, sCEA 5 µg/mL [1] [fold] | MFI (human CEACAM6) [MFI] | MFI (human CEACAM1) [MFI] | MFI [2] [MFI] | MFI (human CEACAM4) [MFI]
1 | B1 | 1 | 3.2 | 5 | 11 | 541 | 652 | 29200 | 431
2 | B2 | – | – | – | – | 373 | 441 | 7750 | 330
3 | B3 | 1 | 0.8 | 2.9 | 7.4 | 490 | 542 | 36200 | 352
4 | B4 | 1 | 1.2 | 2.4 | 7.3 | 562 | 652 | 41000 | 402
5 | B5 | 1 | 0.6 | 4.2 | 5.5 | 420 | 451 | 35100 | 323
